B1: SVASTITGV from adipophilin (peptide)
peptide: SVASTITGV
notes: MHC class I ligand eluted from renal cell carcinoma tissue; also called adipophilin peptide; ADFP peptide
B2: ALLNIKVKL derived from keratin 18 (peptide)
peptide: ALLNIKVKL
notes: MHC class I ligand eluted from renal cell carcinoma tissue and identified by mass spectrometry; also called keratin 18 peptide; keratin 18-peptide
B3: YVDPVITSI derived from met proto-oncogene (peptide)
peptide: YVDPVITSI
notes: MHC class I ligand eluted from renal cell carcinoma tissue; also called met-proto-oncogene peptide

Each binder was assayed against T1, HLA-A*0201 (recombinant, refolded with peptide for tetramer production) (human) (assay: reconstitution of HLA-A*0201 tetramers with peptide).
T1 construct: Monomers were biotinylated; also called HLA-A2
B1: binds. B2: binds. B3: binds.

From US20150044246A1 (IMMATICS BIOTECHNOLOGIES, published 2015)
